{"source": "paper PMC4601081", "about": "“A Single α Helix Drives Extensive Remodeling of the Proteasome Lid and Completion of Regulatory Particle Assembly” (Cell, 2015)", "binders": {"B1": {"name": "Rpn8, subunit of LP2 and lid purified from yeast (natural protein, S. cerevisiae, UniProt Q08723 1-338, looked up)", "chain": "MSLQHEKVTIAPLVLLSALDHYERTQTKENKRCVGVILGDANSSTIRVTNSFALPFEEDEKNSDVWFLDHNYIENMNEMCKKINAKEKLIGWYHSGPKLRASDLKINELFKKYTQNNPLLLIVDVKQQGVGLPTDAYVAIEQVKDDGTSTEKTFLHLPCTIEAEEAEEIGVEHLLRDVRDQAAGGLSIRLTNQLKSLKGLQSKLKDVVEYLDKVINKELPINHTILGKLQDVFNLLPNLGTPDDDEIDVENHDRINISNNLQKALTVKTNDELMVIYISNLVRSIIAFDDLIENKIQNKKIQEQRVKDKQSKVSDDSESESGDKEATAPLIQRKNKKN", "notes": "Rpn8, S. cerevisiae proteasome lid subunit; source: purified from S. cerevisiae as part of LP2 or lid"}, "B2": {"name": "Rpn5, subunit of LP2 and lid purified from yeast (natural protein, S. cerevisiae, UniProt Q12250 1-445, looked up)", "chain": "MSRDAPIKADKDYSQILKEEFPKIDSLAQNDCNSALDQLLVLEKKTRQASDLASSKEVLAKIVDLLASRNKWDDLNEQLTLLSKKHGQLKLSIQYMIQKVMEYLKSSKSLDLNTRISVIETIRVVTENKIFVEVERARVTKDLVEIKKEEGKIDEAADILCELQVETYGSMEMSEKIQFILEQMELSILKGDYSQATVLSRKILKKTFKNPKYESLKLEYYNLLVKISLHKREYLEVAQYLQEIYQTDAIKSDEAKWKPVLSHIVYFLVLSPYGNLQNDLIHKIQNDNNLKKLESQESLVKLFTTNELMRWPIVQKTYEPVLNEDDLAFGGEANKHHWEDLQKRVIEHNLRVISEYYSRITLLRLNELLDLTESQTETYISDLVNQGIIYAKVNRPAKIVNFEKPKNSSQLLNEWSHNVDELLEHIETIGHLITKEEIMHGLQAK", "notes": "Rpn5, S. cerevisiae proteasome lid subunit; source: purified from S. cerevisiae as part of LP2 or lid"}, "B3": {"name": "Rpn6, subunit of LP2 and lid purified from yeast (natural protein, S. cerevisiae, UniProt Q12377 1-434, looked up)", "chain": "MSLPGSKLEEARRLVNEKQYNEAEQVYLSLLDKDSSQSSAAAGASVDDKRRNEQETSILELGQLYVTMGAKDKLREFIPHSTEYMMQFAKSKTVKVLKTLIEKFEQVPDSLDDQIFVCEKSIEFAKREKRVFLKHSLSIKLATLHYQKKQYKDSLALINDLLREFKKLDDKPSLVDVHLLESKVYHKLRNLAKSKASLTAARTAANSIYCPTQTVAELDLMSGILHCEDKDYKTAFSYFFESFESYHNLTTHNSYEKACQVLKYMLLSKIMLNLIDDVKNILNAKYTKETYQSRGIDAMKAVAEAYNNRSLLDFNTALKQYEKELMGDELTRSHFNALYDTLLESNLCKIIEPFECVEISHISKIIGLDTQQVEGKLSQMILDKIFYGVLDQGNGWLYVYETPNQDATYDSALELVGQLNKVVDQLFEKASVLY", "notes": "Rpn6, S. cerevisiae proteasome lid subunit; Also stands as the whole protein for the region row on the E. coli truncations; source: purified from S. cerevisiae as part of LP2 or lid"}}, "conditions_in_all_cases": "both partners purified", "key": {"[1]": {"molecular_target": "T1, lid particle 2 (LP2), recombinant (S. cerevisiae, UniProt P40016 1-523; Q12250 1-445; Q12377 1-434; Q06103 1-429; Q08723 1-338; Q04062 …)", "T1 construct": "Rpn3, S. cerevisiae proteasome lid subunit; Rpn5, S. cerevisiae proteasome lid subunit; Rpn6, S. cerevisiae proteasome lid subunit; Rpn7, S. cerevisiae proteasome lid subunit; Rpn8, S. cerevisiae proteasome lid subunit; Rpn9, S. cerevisiae proteasome lid subunit; Rpn11, S. cerevisiae proteasome lid subunit; Sem1, S. cerevisiae proteasome lid subunit; legends speak of 'untagged LP2'; operons as in …", "test": "native gel or EMSA; RP assembly assay: recombinant components 1 uM each with 10 uM Rpn10 in 26S buffer (50 mM Tris-HCl pH 7.5, 5 mM MgCl2, 10% glycerol, 1 mM ATP), 30°C 20 min; native PAGE at 4°C; Coomassie or immunoblot (FLAG on Rpt1, HA on Rpn7, Rpn12)"}, "[2]": {"molecular_target": "T2, Rpn3, subunit of LP2 and lid purified from yeast (S. cerevisiae, UniProt P40016 1-523)", "T2 construct": "Rpn3, S. cerevisiae proteasome lid subunit; source: purified from S. cerevisiae as part of LP2 or lid", "T2 sequence (looked up)": "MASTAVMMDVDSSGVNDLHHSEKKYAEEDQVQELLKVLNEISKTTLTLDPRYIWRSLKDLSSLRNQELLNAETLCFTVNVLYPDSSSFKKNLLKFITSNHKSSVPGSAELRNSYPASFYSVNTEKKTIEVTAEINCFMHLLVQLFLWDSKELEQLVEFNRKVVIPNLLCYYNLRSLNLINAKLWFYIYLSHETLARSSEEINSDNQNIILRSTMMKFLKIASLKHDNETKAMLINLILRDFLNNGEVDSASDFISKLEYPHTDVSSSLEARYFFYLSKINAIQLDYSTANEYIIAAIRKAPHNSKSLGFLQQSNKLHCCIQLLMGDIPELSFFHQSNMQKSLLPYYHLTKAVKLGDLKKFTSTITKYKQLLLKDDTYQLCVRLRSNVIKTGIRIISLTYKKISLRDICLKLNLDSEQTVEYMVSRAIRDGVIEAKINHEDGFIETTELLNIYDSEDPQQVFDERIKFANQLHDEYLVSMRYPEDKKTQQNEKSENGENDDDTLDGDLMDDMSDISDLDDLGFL", "test": "cross-linking; QCLMS of LP2 purified from yeast as a whole complex: BS3-d0 / BS3-d4 at 1:200 protein to cross-linker, Buffer HA, 30°C 1 h; monomeric cross-linked complex cut from SDS-PAGE, trypsin, LC-MS/MS"}, "[3]": {"molecular_target": "T3, Rpn7, subunit of LP2 and lid purified from yeast (S. cerevisiae, UniProt Q06103 1-429)", "T3 construct": "Rpn7, S. cerevisiae proteasome lid subunit; source: purified from S. cerevisiae as part of LP2 or lid", "T3 sequence (looked up)": "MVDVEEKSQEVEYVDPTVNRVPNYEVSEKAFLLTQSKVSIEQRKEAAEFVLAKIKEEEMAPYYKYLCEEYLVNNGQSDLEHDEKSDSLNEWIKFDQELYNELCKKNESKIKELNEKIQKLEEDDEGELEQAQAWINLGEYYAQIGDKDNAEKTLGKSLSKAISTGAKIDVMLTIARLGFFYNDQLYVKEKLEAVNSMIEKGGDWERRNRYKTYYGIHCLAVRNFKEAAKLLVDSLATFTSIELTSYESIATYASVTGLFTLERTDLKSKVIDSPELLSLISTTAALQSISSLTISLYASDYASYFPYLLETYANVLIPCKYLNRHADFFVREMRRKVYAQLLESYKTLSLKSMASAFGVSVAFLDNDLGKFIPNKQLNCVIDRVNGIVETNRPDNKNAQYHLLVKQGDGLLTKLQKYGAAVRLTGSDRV", "test": "cross-linking; QCLMS of LP2 purified from yeast as a whole complex: BS3-d0 / BS3-d4 at 1:200 protein to cross-linker, Buffer HA, 30°C 1 h; monomeric cross-linked complex cut from SDS-PAGE, trypsin, LC-MS/MS"}, "[4]": {"molecular_target": "B1", "test": "cross-linking; QCLMS of lid purified from yeast as a whole complex: BS3-d0 / BS3-d4 at 1:200 protein to cross-linker, Buffer HA, 30°C 1 h; monomeric cross-linked complex cut from SDS-PAGE, trypsin, LC-MS/MS"}, "[5]": {"molecular_target": "B3", "test": "cross-linking; QCLMS of LP2 purified from yeast as a whole complex: BS3-d0 / BS3-d4 at 1:200 protein to cross-linker, Buffer HA, 30°C 1 h; monomeric cross-linked complex cut from SDS-PAGE, trypsin, LC-MS/MS"}, "[6]": {"molecular_target": "T4, Rpn9, subunit of LP2 and lid purified from yeast (S. cerevisiae, UniProt Q04062 1-393)", "T4 construct": "Rpn9, S. cerevisiae proteasome lid subunit; source: purified from S. cerevisiae as part of LP2 or lid", "T4 sequence (looked up)": "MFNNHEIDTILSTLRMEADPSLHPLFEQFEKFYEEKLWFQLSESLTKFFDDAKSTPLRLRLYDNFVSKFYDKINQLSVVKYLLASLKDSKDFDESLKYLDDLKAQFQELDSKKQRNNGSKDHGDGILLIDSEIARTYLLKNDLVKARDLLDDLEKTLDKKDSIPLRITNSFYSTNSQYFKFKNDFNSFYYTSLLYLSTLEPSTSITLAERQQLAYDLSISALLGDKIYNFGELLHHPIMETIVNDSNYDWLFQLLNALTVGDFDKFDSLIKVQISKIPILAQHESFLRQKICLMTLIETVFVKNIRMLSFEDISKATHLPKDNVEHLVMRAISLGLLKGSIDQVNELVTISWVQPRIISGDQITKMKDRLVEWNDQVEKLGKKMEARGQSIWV", "test": "cross-linking; QCLMS of LP2 purified from yeast as a whole complex: BS3-d0 / BS3-d4 at 1:200 protein to cross-linker, Buffer HA, 30°C 1 h; monomeric cross-linked complex cut from SDS-PAGE, trypsin, LC-MS/MS"}, "[7]": {"molecular_target": "B2", "test": "cross-linking; QCLMS of lid purified from yeast as a whole complex: BS3-d0 / BS3-d4 at 1:200 protein to cross-linker, Buffer HA, 30°C 1 h; monomeric cross-linked complex cut from SDS-PAGE, trypsin, LC-MS/MS"}, "[8]": {"molecular_target": "T2, Rpn3, subunit of LP2 and lid purified …", "test": "cross-linking; QCLMS of lid purified from yeast as a whole complex: BS3-d0 / BS3-d4 at 1:200 protein to cross-linker, Buffer HA, 30°C 1 h; monomeric cross-linked complex cut from SDS-PAGE, trypsin, LC-MS/MS"}, "[9]": {"molecular_target": "T2, Rpn3, subunit of LP2 and lid purified …", "test": "negative-stain EM; single-particle 3D reconstruction of LP2 purified from yeast at 16 Å; ~50 nM complex in Buffer A, 2% uranyl acetate"}}, "data": [{"binder": "Rpn12-E271K, recombinant (natural protein, S. cerevisiae, UniProt P32496 1-274, looked up, Rpn12, S. cerevisiae proteasome lid subunit, Glu271 to lysine) MPSLAELTKSLSIAFENGDYAACEKLLPPIKIELIKNNLLIPDLSIQNDIYLNDLMITKRILEVGALASIQTFNFDSFENYFNQLKPYYFSNNHKLSESDKKSKLISLYLLNLLSQNNTTKFHSELQYLDKHIKNLEDDSLLSYPIKLDRWLMEGSYQKAWDLLQSGSQNISEFDSFTDILKSAIRDEIAKNTELSYDFLPLSNIKALLFFNNEKETEKFALERNWPIVNSKVYFNNQSKEKADYEDEMMHEEDQKTNIIEKAMDYAISIKNIV", "values": [{"measurement": "binding result", "setting": "[1]", "value": "binds"}]}, {"binder": "Sem1, subunit of LP2 and lid purified from yeast (natural protein, S. cerevisiae, UniProt O94742 1-89, looked up, Sem1, S. cerevisiae proteasome lid subunit; source: purified from S. cerevisiae as part of LP2 or lid) MSTDVAAAQAQSKIDLTKKKNEEINKKSLEEDDEFEDFPIDTWANGETIKSNAVTQTNIWEENWDDVEVDDDFTNELKAELDRYKRENQ", "values": [{"measurement": "binding result", "setting": "[2]", "value": "binds"}, {"measurement": "binding result", "setting": "[3]", "value": "binds"}, {"measurement": "binding result", "setting": "[4]", "value": "binds"}]}, {"binder": "B1", "values": [{"measurement": "binding result", "setting": "[5]", "value": "binds"}, {"measurement": "binding result", "setting": "[6]", "value": "binds"}, {"measurement": "binding result", "setting": "[7]", "value": "binds"}]}, {"binder": "B2", "values": [{"measurement": "binding result", "setting": "[8]", "value": "binds"}]}, {"binder": "B3", "values": [{"measurement": "binding result", "setting": "[9]", "value": "binds"}, {"measurement": "binding result", "setting": "[7]", "value": "binds"}]}]}
